Here are results for 3 molecules from paper PMC4548243, “Nuclear Localization of the DNA Repair Scaffold XRCC1: Uncovering the Functional Role of a Bipartite NLS” (Scientific Reports, 2015).

No end group written: not given here. *: point of attachment. FITC = O=C1OC2(c3ccc(O)cc3Oc3cc(O)ccc32)c2ccc(NC(=S)*)cc21

Common to all, as to conditions: both partners purified
Experiment [1] concerns the target T1, murine Importin α with the Importin β binding domain (IBB) deleted, Impα(70–529) (murine, UniProt P52293 70-529). Description: fluorescence polarisation; direct titration: serial dilutions of Impα into 100 nM FITC-labeled peptide; FP buffer (20 mM Tris pH 7.7, 125 mM NaCl, 1 mM EDTA, 2 mM TCEP, 5% sucrose, 10 mM NaN3); room temperature (legend: 25 °C); apparent dissociation constants, single-site fit. In general terms: Fluorescence polarisation rises when a labelled molecule tumbles more slowly, as on binding a larger partner.

Experiment [2] has as its target Impα(70–529)(W184R/W231R) (murine, UniProt P52293 70-529, W184R | W231R). Described as above.
For experiment [3], the target named is T1, murine Importin α with the Importin β …. Description: fluorescence polarisation; competition: serial dilutions of unlabeled peptide into 150 nM Impα(70–529) and 100 nM FITC-labeled FL-NLS peptide in FP buffer; fit to a competitive binding equation; apparent.

B1: FL-NLS: FITC-XRCC1 (241–276) (peptide)
peptide: {FITC}-SPKGKRKLDLNQEEKKTPSKPPAQLSPSVPKRPKLP
notes: human XRCC1 residues 241-276, the bipartite NLS; also called Full XRCC1 NLS ligand; FITC-labeled bipartite XRCC1 NLS; source: synthetic peptide, bought: Genscript
For B1, the Kd in experiment [1] came out at 108 nM; in experiment [2], 7400 nM.

B2: M2: XRCC1 (268-276)-G-Lys-FITC (peptide)
peptide: SVPKRPKLPGK(FITC)
notes: added G-Lys that carries the FITC label; also called major motif ligand; major motif peptide; source: synthetic peptide, bought: Genscript
Turning to B2, the Kd in experiment [1] was 2100 nM; in experiment [2], 690000 nM.

B3: NLS-E4: XRCC1(241–276)/(T257E/S259E/S266E/S268E) quadruple variant (peptide)
peptide: SPKGKRKLDLNQEEKKEPEKPPAQLEPEVPKRPKLP
notes: human XRCC1 residues 241-276 with four glutamate substitutions that mimic phosphorylation; also called NLS(T257E/S259E/S266E/S268E)
On to B3, for which, in experiment [3], the Kd came to 604 nM.
